From US20220265819A1 (GEN2 NEUROSCIENCE, published 2022)

Assays:
[1] = target: T1, full length recombinant human 2N4R tau (amino acids 1-441) (human, UniProt P10636 1-758); test: SPR Biacore SCK, IgG on Protein A, tau analyte
T1 construct: Bought (rPeptide); recombinant, non-phosphorylated; also called recombinant tau
Method: 23.5 Assessment of antibody binding to tau (Biacore SCK analysis): Binding of anti-tau hIgG1 to full length recombinant 2N4R tau (Rpeptide; SEQ ID NO: 2) was assessed using the Biacore T200 (GE Healthcare, Chicago, Ill., USA) running Biacore T200 Evaluation Software V2.0.1. hIgG1 were immobilised on a Protein A capture sensor chip in running buffer (HBS-EP+ buffer containing 1 mg/mL BSA) at 25° C. captured to ˜50 RU at 10 μL/min. For single-cycle kinetics experiments, recombinant 2N4R tau was flowed at concentrations ranging from 5 nM to 40 nM (2-fold dilutions) with an association time of 150 s and a dissociation time of 200 s. Curves were compared to a reference cell that was mock immobilized (no antibody present).
Data were analysed using Langmuir (1:1) binding analysis, describing a 1:1 interaction at the surface: […]

Bovine serum albumin = target: T2, Bovine serum albumin (bovine, UniProt P02769 25-607); test: ELISA on 1% BSA, HEK supernatant, anti-human IgG-HRP, n=1
T2 construct: Negative control antigen in ELISA; also called BSA
T2 sequence (P02769 25-607 limits assumed): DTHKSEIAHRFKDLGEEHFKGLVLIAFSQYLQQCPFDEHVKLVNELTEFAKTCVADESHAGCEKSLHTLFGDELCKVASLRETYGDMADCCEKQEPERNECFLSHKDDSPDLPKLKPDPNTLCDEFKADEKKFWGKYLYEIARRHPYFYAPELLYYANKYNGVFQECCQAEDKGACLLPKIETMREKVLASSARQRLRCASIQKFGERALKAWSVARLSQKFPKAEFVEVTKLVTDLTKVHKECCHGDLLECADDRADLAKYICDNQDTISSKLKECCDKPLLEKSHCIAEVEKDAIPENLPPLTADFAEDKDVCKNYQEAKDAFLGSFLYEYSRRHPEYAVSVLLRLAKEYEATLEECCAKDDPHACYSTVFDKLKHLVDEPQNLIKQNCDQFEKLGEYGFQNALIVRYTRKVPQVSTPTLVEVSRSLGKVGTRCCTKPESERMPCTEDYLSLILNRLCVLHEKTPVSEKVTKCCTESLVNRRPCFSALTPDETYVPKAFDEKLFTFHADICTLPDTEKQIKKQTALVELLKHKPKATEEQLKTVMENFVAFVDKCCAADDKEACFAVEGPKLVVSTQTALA
Method: Antigen was removed from wells and the plates were then blocked for 1 hour at RT with 5% dried milk in 1×TBS. Blocking solution was removed, HEK293 cell supernatant (1:100 in 1% BSA/1×TBS) was added to relevant wells, and plates were incubated for 1 hour at RT with gentle shaking. Plates were then washed four times with TBS/0.1% Tween (TBST). Goat-anti-human IgG-HRP antibody (ThermoFisher Scientific, Waltham, Mass. USA), diluted 1:2000 in 5% milk/TBS, was added to each well and plates were incubated for 1 hour at RT with gentle shaking before being washed four times with TBST. 3,3′,5,5′-tetramethylbenzidine (TMB) ELISA solution was added to each well and plates were incubated for 15 mins at RT. An equal volume of 1 M sulfuric acid was added to each well and OD was measured at 450 nm.

T1 sequence (P10636 other isoform, or with tags, fused parts or gaps limits assumed): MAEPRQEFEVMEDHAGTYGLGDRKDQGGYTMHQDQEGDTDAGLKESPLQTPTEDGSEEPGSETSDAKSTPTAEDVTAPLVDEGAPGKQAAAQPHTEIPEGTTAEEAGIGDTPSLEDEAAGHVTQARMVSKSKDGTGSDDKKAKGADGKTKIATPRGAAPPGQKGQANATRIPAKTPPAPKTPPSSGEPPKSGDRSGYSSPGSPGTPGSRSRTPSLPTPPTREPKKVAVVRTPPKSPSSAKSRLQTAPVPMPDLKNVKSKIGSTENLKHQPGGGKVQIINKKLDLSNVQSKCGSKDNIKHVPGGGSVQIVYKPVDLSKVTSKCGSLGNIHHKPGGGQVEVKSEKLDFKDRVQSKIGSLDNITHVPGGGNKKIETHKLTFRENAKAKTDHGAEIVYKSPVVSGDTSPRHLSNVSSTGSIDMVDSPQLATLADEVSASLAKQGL

Row | Binder | Kd [1] [µM] | Relative KD [1] [fold vs VH0VK0] | koff [1] [s⁻¹] | kon [1] [M⁻¹ s⁻¹] | binding result (Bovine serum albumin)
1 | Clone 26 (VH4Vκ1), humanised variant of clone #28, human IgG1 (antibody, V domains shown, also called VH4VK1) VH: QVQLQESGPGLVKPSETLSLTCTVSGFSLNNYDMSWVRQAPGKGLEWIGTVSTTYRRYYASWAKGRFTISKDTSSTTVDLQMTSLTAEDTATYFCAASGIWGRGTLVTVSS VL: AQVLTQSTSPLSASVGDRVTITCQSSQRVYSNYLAWYQQKPGQPPKRLIFLASTLESGVPSRFSGSGSGTEFTLTISSLQCDDFATYYCAGTYTGSIWAFGGGTEVVIK | 0.0576 | 1.27 | 0.00336 | 58300 | no binding (tested: supernatant 1:100)
2 | Clone 15 (VH1Vκ2), humanised variant of clone #28, human IgG1 (antibody, V domains shown, also called VH1VK2) VH: QSLQESGGGLVKPSETLSLTCTVSGFSLNNYDMSWVRQAPGKGLEWIGTVSTTYRRYYASWAKGRFTISKTSSTTVDLKMTSLTAEDTATYFCAASGIWGRGTLVTVSS VL: AQVLTQSPSTLSASVGDRVTITCQSSQRVYSNYLAWYQQKPGQPPKRLIFLASTLESGVPSRFSGSGSGTEFTLTISSLQPDDFATYYCAGTYTGSIWAFGGGTKVEIK | 0.0441 | 0.97 | 0.00294 | 66800 | no binding (tested: supernatant 1:100)
3 | Clone 23 (VH3Vκ2), humanised variant of clone #28, human IgG1 (antibody, V domains shown, also called VH3VK2) VH: QVQLQESGPGLVKPSETLSLTCTVSGFSLNNYDMSWVRQAPGKGLEWIGTVSTTYRRYYASWAKGRFTISKTSSTTVDLQMTSLTAEDTATYFCAASGIWGRGTLVTVSS VL: AQVLTQSPSTLSASVGDRVTITCQSSQRVYSNYLAWYQQKPGQPPKRLIFLASTLESGVPSRFSGSGSGTEFTLTISSLQPDDFATYYCAGTYTGSIWAFGGGTKVEIK | 0.0513 | 1.13 | 0.00253 | 49400 | no binding (tested: supernatant 1:100)
4 | Clone 25 (VH3Vκ5), humanised variant of clone #28, human IgG1 (antibody, V domains shown, also called VH3VK5) VH: QVQLQESGPGLVKPSETLSLTCTVSGFSLNNYDMSWVRQAPGKGLEWIGTVSTTYRRYYASWAKGRFTISKTSSTTVDLQMTSLTAEDTATYFCAASGIWGRGTLVTVSS VL: DIQMTQSPSTLSASVGDRVTITCQSSQRVSSSYLAWYQQKPGQPPKRLIFLASTLESGVPSRFSGSGSGTEFTLTISSLQPDDFATYYCAGTYTGSIWAFGGGTKVEIK | 0.0389 | 0.86 | 0.00316 | 81300 | no binding (tested: supernatant 1:100)
5 | Clone 14 (VH1Vκ1), humanised variant of clone #28, human IgG1 (antibody, V domains shown, also called VH1VK1) VH: QSLQESGGGLVKPSETLSLTCTVSGFSLNNYDMSWVRQAPGKGLEWIGTVSTTYRRYYASWAKGRFTISKTSSTTVDLKMTSLTAEDTATYFCAASGIWGRGTLVTVSS VL: AQVLTQSTSPLSASVGDRVTITCQSSQRVYSNYLAWYQQKPGQPPKRLIFLASTLESGVPSRFSGSGSGTEFTLTISSLQCDDFATYYCAGTYTGSIWAFGGGTEVVIK | 0.0366 | 0.81 | 0.00308 | 84000 | no binding (tested: supernatant 1:100)
6 | Clone 17 (VH1Vκ5), humanised variant of clone #28, human IgG1 (antibody, V domains shown, also called VH1VK5) VH: QSLQESGGGLVKPSETLSLTCTVSGFSLNNYDMSWVRQAPGKGLEWIGTVSTTYRRYYASWAKGRFTISKTSSTTVDLKMTSLTAEDTATYFCAASGIWGRGTLVTVSS VL: DIQMTQSPSTLSASVGDRVTITCQSSQRVSSSYLAWYQQKPGQPPKRLIFLASTLESGVPSRFSGSGSGTEFTLTISSLQPDDFATYYCAGTYTGSIWAFGGGTKVEIK | 0.0411 | 0.91 | 0.00428 | 104000 | no binding (tested: supernatant 1:100)
7 | Clone 16 (VH1Vκ4), humanised variant of clone #28, human IgG1 (antibody, V domains shown, also called VH1VK4) VH: QSLQESGGGLVKPSETLSLTCTVSGFSLNNYDMSWVRQAPGKGLEWIGTVSTTYRRYYASWAKGRFTISKTSSTTVDLKMTSLTAEDTATYFCAASGIWGRGTLVTVSS VL: DIQMTQSPSTLSASVGDRVTITCQSSQRVYSNYLAWYQQKPGQPPKRLIFLASTLESGVPSRFSGSGSGTEFTLTISSLQPDDFATYYCAGTYTGSIWAFGGGTKVEIK | 0.0312 | 0.69 | 0.00207 | 66300 | no binding (tested: supernatant 1:100)
8 | Clone 22 (VH3Vκ1), humanised variant of clone #28, human IgG1 (antibody, V domains shown, also called VH3VK1) VH: QVQLQESGPGLVKPSETLSLTCTVSGFSLNNYDMSWVRQAPGKGLEWIGTVSTTYRRYYASWAKGRFTISKTSSTTVDLQMTSLTAEDTATYFCAASGIWGRGTLVTVSS VL: AQVLTQSTSPLSASVGDRVTITCQSSQRVYSNYLAWYQQKPGQPPKRLIFLASTLESGVPSRFSGSGSGTEFTLTISSLQCDDFATYYCAGTYTGSIWAFGGGTEVVIK | 0.0439 | 0.97 | 0.00249 | 56700 | no binding (tested: supernatant 1:100)

More lines, now with the values ahead:

Row | Kd [1] [µM] | Relative KD [1] [fold vs VH0VK0] | koff [1] [s⁻¹] | kon [1] [M⁻¹ s⁻¹] | binding result (Bovine serum albumin) | Binder
9 | 0.123 | 2.72 | 0.00406 | 33100 | no binding (tested: supernatant 1:100) | Clone 36 (VH6Vκ4), humanised variant of clone #28, human IgG1 (antibody, V domains shown, also called VH6VK4) VH: QVQLQESGPGLVKPSETLSLTCTVSGFSLNNYDMSWVRQAPGKGLEWIGTVSTTYRRYYADSVKGRFTISRDNSKNTLDLQMTSLTAEDTATYFCAASGIWGRGTLVTVSS VL: DIQMTQSPSTLSASVGDRVTITCQSSQRVYSNYLAWYQQKPGQPPKRLIFLASTLESGVPSRFSGSGSGTEFTLTISSLQPDDFATYYCAGTYTGSIWAFGGGTKVEIK
10 | 0.141 | 3.11 | 0.00525 | 37300 | no binding (tested: supernatant 1:100) | Clone 34 (VH6Vκ1), humanised variant of clone #28, human IgG1 (antibody, V domains shown, also called VH6VK1) VH: QVQLQESGPGLVKPSETLSLTCTVSGFSLNNYDMSWVRQAPGKGLEWIGTVSTTYRRYYADSVKGRFTISRDNSKNTLDLQMTSLTAEDTATYFCAASGIWGRGTLVTVSS VL: AQVLTQSTSPLSASVGDRVTITCQSSQRVYSNYLAWYQQKPGQPPKRLIFLASTLESGVPSRFSGSGSGTEFTLTISSLQCDDFATYYCAGTYTGSIWAFGGGTEVVIK
11 | 0.0757 | 1.67 | 0.00351 | 46300 | no binding (tested: supernatant 1:100) | Clone 30 (VH5Vκ1), humanised variant of clone #28, human IgG1 (antibody, V domains shown, also called VH5VK1) VH: QVQLQESGPGLVKPSETLSLTCTVSGFSLNNYDMSWVRQAPGKGLEWIGTVSTTYRRYYASWAKGRFTISRDNSKNTLDLQMTSLTAEDTATYFCAASGIWGRGTLVTVSS VL: AQVLTQSTSPLSASVGDRVTITCQSSQRVYSNYLAWYQQKPGQPPKRLIFLASTLESGVPSRFSGSGSGTEFTLTISSLQCDDFATYYCAGTYTGSIWAFGGGTEVVIK
12 | 0.114 | 2.52 | 0.00409 | 35900 | no binding (tested: supernatant 1:100) | Clone 29 (VH4Vκ5), humanised variant of clone #28, human IgG1 (antibody, V domains shown, also called VH4VK5) VH: QVQLQESGPGLVKPSETLSLTCTVSGFSLNNYDMSWVRQAPGKGLEWIGTVSTTYRRYYASWAKGRFTISKDTSSTTVDLQMTSLTAEDTATYFCAASGIWGRGTLVTVSS VL: DIQMTQSPSTLSASVGDRVTITCQSSQRVSSSYLAWYQQKPGQPPKRLIFLASTLESGVPSRFSGSGSGTEFTLTISSLQPDDFATYYCAGTYTGSIWAFGGGTKVEIK
13 | 0.0606 | 1.34 | 0.00354 | 58400 | no binding (tested: supernatant 1:100) | Clone 33 (VH5Vκ5), humanised variant of clone #28, human IgG1 (antibody, V domains shown, also called VH5VK5) VH: QVQLQESGPGLVKPSETLSLTCTVSGFSLNNYDMSWVRQAPGKGLEWIGTVSTTYRRYYASWAKGRFTISRDNSKNTLDLQMTSLTAEDTATYFCAASGIWGRGTLVTVSS VL: DIQMTQSPSTLSASVGDRVTITCQSSQRVSSSYLAWYQQKPGQPPKRLIFLASTLESGVPSRFSGSGSGTEFTLTISSLQPDDFATYYCAGTYTGSIWAFGGGTKVEIK
14 | 0.123 | 2.72 | 0.00544 | 44300 | no binding (tested: supernatant 1:100) | Clone 37 (VH6Vκ5), humanised variant of clone #28, human IgG1 (antibody, V domains shown, also called VH6VK5) VH: QVQLQESGPGLVKPSETLSLTCTVSGFSLNNYDMSWVRQAPGKGLEWIGTVSTTYRRYYADSVKGRFTISRDNSKNTLDLQMTSLTAEDTATYFCAASGIWGRGTLVTVSS VL: DIQMTQSPSTLSASVGDRVTITCQSSQRVSSSYLAWYQQKPGQPPKRLIFLASTLESGVPSRFSGSGSGTEFTLTISSLQPDDFATYYCAGTYTGSIWAFGGGTKVEIK
15 | 0.222 | 4.9 | 0.00533 | 24000 | no binding (tested: supernatant 1:100) | Clone 35 (VH6Vκ2), humanised variant of clone #28, human IgG1 (antibody, V domains shown, also called VH6VK2) VH: QVQLQESGPGLVKPSETLSLTCTVSGFSLNNYDMSWVRQAPGKGLEWIGTVSTTYRRYYADSVKGRFTISRDNSKNTLDLQMTSLTAEDTATYFCAASGIWGRGTLVTVSS VL: AQVLTQSPSTLSASVGDRVTITCQSSQRVYSNYLAWYQQKPGQPPKRLIFLASTLESGVPSRFSGSGSGTEFTLTISSLQPDDFATYYCAGTYTGSIWAFGGGTKVEIK
